Assay results from patent US20250163162A1 (SYNTHEKINE, published 2025).

T1: IL10Rα/IL2Rγ receptor (human, UniProt Q13651 22-578; P31785 23-369)
T1 sequence (looked up) 1: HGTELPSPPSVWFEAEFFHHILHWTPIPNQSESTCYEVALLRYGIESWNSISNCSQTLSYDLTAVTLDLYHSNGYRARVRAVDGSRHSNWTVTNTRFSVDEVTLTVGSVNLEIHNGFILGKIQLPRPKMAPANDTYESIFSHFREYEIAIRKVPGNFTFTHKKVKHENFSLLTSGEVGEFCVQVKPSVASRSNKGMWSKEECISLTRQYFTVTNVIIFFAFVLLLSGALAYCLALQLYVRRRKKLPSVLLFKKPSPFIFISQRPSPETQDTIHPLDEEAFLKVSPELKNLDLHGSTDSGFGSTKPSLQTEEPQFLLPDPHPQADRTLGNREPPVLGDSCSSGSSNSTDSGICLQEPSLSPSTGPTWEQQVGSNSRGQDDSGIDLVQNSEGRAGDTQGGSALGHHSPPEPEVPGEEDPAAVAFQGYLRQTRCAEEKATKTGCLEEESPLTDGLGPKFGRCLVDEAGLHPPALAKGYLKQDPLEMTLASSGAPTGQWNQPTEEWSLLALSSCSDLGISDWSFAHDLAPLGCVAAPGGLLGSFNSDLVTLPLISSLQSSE
T1 sequence (looked up) 2: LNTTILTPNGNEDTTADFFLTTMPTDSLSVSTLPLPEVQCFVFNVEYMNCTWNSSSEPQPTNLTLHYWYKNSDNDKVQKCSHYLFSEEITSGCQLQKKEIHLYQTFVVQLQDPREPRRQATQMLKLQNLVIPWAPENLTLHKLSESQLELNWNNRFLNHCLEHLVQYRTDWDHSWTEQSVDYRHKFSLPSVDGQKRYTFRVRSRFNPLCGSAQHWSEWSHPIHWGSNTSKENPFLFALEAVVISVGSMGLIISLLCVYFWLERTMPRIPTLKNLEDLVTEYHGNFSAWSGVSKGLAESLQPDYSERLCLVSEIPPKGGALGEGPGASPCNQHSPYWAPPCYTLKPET

B1: DR395(DR229-DR239) (bispecific antibody)
chain: QVQLQESGGGLVQPGGSLRLSCTASGFSFSSYPMTWARQAPGKGLEWVSTIASDGGSTAYAASVEGRFTISRDNAKSTLYLQLNSLKTEDTAMYYCTKGYGDGTPAPGQGTQVTVSSGGGSQVQLQESGGGSVQAGGSLRLSCTVSGYTYSSNCMGWFRQAPGKEREGVATIYTGGGNTYYADSVKGRFTISQDNAKNTVYLQMNNLKPEDTAMYYCAAEPLSRVYGGSCPTPTFDYWGQGTQVTVSSASHHHHHH
B2: DR441(DR236-DR231) (bispecific antibody)
chain: QVQLQESGGGSVQAGGSLRLSCAASRFTYSSYCMGWFRQAPGKEREGVASIDSDGSTSYTDSVKGRFTISKDNAKNTLYLQMNSLKPEDTAMYYCALDLMSTVVPGFCGFLLSAGMDYWGKGTQVTVSSGGGSQVQLQESGGGSVQAGGSLRLSCTASGFTFDDREMNWYRQAPGNECELVSTISSDGSTYYADSVKGRFTISQDNAKNTVYLQMDSVKPEDTAVYYCAADFMIAIQAPGAGCWGQGTQVTVSSASHHHHHH
B3: DR465(DR240-DR231) (bispecific antibody)
chain: QVQLQESGGGSVQAGGSLRLSCGASGYTYSSYCMGWFRQVPGKEREGVAVIDSDGSTSYADSVKGRFTISKDNGKNTLYLQMNSLKPEDTAMYYCAADLGHYRPPCGVLYLGMDYWGKGTQVTVSSGGGSQVQLQESGGGSVQAGGSLRLSCTASGFTFDDREMNWYRQAPGNECELVSTISSDGSTYYADSVKGRFTISQDNAKNTVYLQMDSVKPEDTAVYYCAADFMIAIQAPGAGCWGQGTQVTVSSASHHHHHH

Biological target: T1, IL10Rα/IL2Rγ receptor
Assay: cell-based or functional assay

Binder | pSTAT3 MFI, CD8 T cells, 0.0001 nM (unstimulated 1446) [MFI] | pSTAT3 MFI, CD8 T cells, 0.001 nM (unstimulated 1446) [MFI] | pSTAT3 MFI, CD8 T cells, 0.01 nM (unstimulated 1446) [MFI] | pSTAT3 MFI, CD8 T cells, 0.1 nM (unstimulated 1446) [MFI] | pSTAT3 MFI, CD8 T cells, 1 nM (unstimulated 1446) [MFI] | pSTAT3 MFI, CD8 T cells, 10 nM (unstimulated 1446) [MFI] | pSTAT3 MFI, CD8 T cells, 100 nM (unstimulated 1446) [MFI]
B1 | 1380 | 1420 | 1400 | 1800 | 3320 | 3880 | 3450
B2 | 1380 | 1410 | 1430 | 1610 | 3060 | 4470 | 4260
B3 | 1390 | 1370 | 1380 | 1590 | 3260 | 4850 | 5020

Biological target: T1, IL10Rα/IL2Rγ receptor
Assay: cell-based or functional assay
Remark: another data set of the same source

Binder | pSTAT3 MFI, B cells, 100 nM (unstimulated 1045) [MFI] | pSTAT3 MFI, CD4+ T cells, 100 nM (unstimulated 1778) [MFI] | pSTAT3 MFI, CD8+ T cells, 100 nM (unstimulated 1288) [MFI] | pSTAT3 MFI, Monocytes, 100 nM (unstimulated 1787) [MFI] | pSTAT3 MFI, NK cells, 100 nM (unstimulated 1149) [MFI]
B1 | 1030 | 3570 | 2700 | 2020 | 1430
B2 | 1280 | 5760 | 3940 | 2130 | 1660
B3 | 1660 | 6350 | 4510 | 2350 | 1880

Biological target: T1, IL10Rα/IL2Rγ receptor
Assay: cell-based or functional assay
Remark: another data set of the same source

Binder | pSTAT3 MFI, NK cells, 0.0001 nM (unstimulated 1315) [MFI] | pSTAT3 MFI, NK cells, 0.001 nM (unstimulated 1315) [MFI] | pSTAT3 MFI, NK cells, 0.01 nM (unstimulated 1315) [MFI] | pSTAT3 MFI, NK cells, 0.1 nM (unstimulated 1315) [MFI] | pSTAT3 MFI, NK cells, 1 nM (unstimulated 1315) [MFI] | pSTAT3 MFI, NK cells, 10 nM (unstimulated 1315) [MFI] | pSTAT3 MFI, NK cells, 100 nM (unstimulated 1315) [MFI]
B1 | 1260 | 1270 | 1260 | 1310 | 1640 | 1800 | 1760
B2 | 1250 | 1260 | 1270 | 1270 | 1440 | 1800 | 1770
B3 | 1220 | 1230 | 1220 | 1250 | 1520 | 2040 | 2130

Biological target: T1, IL10Rα/IL2Rγ receptor
Assay: cell-based or functional assay
Remark: another data set of the same source

Binder | pSTAT3 MFI, CD4 T cells, 0.0001 nM (unstimulated 1887) [MFI] | pSTAT3 MFI, CD4 T cells, 0.001 nM (unstimulated 1887) [MFI] | pSTAT3 MFI, CD4 T cells, 0.01 nM (unstimulated 1887) [MFI] | pSTAT3 MFI, CD4 T cells, 0.1 nM (unstimulated 1887) [MFI] | pSTAT3 MFI, CD4 T cells, 1 nM (unstimulated 1887) [MFI] | pSTAT3 MFI, CD4 T cells, 10 nM (unstimulated 1887) [MFI] | pSTAT3 MFI, CD4 T cells, 100 nM (unstimulated 1887) [MFI]
B1 | 1800 | 1870 | 1890 | 2450 | 4570 | 5180 | 4670
B2 | 1810 | 1830 | 1880 | 2240 | 4560 | 6760 | 6350
B3 | 1800 | 1800 | 1850 | 2210 | 4730 | 7240 | 7070

Biological target: T1, IL10Rα/IL2Rγ receptor
Assay: cell-based or functional assay
Remark: another data set of the same source

Binder | pSTAT3 MFI, Monocytes, 0.0001 nM (unstimulated 2116) [MFI] | pSTAT3 MFI, Monocytes, 0.001 nM (unstimulated 2116) [MFI] | pSTAT3 MFI, Monocytes, 0.01 nM (unstimulated 2116) [MFI] | pSTAT3 MFI, Monocytes, 0.1 nM (unstimulated 2116) [MFI] | pSTAT3 MFI, Monocytes, 1 nM (unstimulated 2116) [MFI] | pSTAT3 MFI, Monocytes, 10 nM (unstimulated 2116) [MFI] | pSTAT3 MFI, Monocytes, 100 nM (unstimulated 2116) [MFI]
B1 | 2060 | 2060 | 2020 | 2020 | 2210 | 2340 | 2440
B2 | 2030 | 2040 | 2030 | 2010 | 2060 | 2340 | 2290
B3 | 1990 | 1970 | 1950 | 1960 | 2110 | 2470 | 2470

Biological target: T1, IL10Rα/IL2Rγ receptor
Assay: cell-based or functional assay
Remark: another data set of the same source

Binder | pSTAT3 MFI, B cells, 0.0001 nM (unstimulated 1193.5) [MFI] | pSTAT3 MFI, B cells, 0.001 nM (unstimulated 1193.5) [MFI] | pSTAT3 MFI, B cells, 0.01 nM (unstimulated 1193.5) [MFI] | pSTAT3 MFI, B cells, 0.1 nM (unstimulated 1193.5) [MFI] | pSTAT3 MFI, B cells, 1 nM (unstimulated 1193.5) [MFI] | pSTAT3 MFI, B cells, 10 nM (unstimulated 1193.5) [MFI] | pSTAT3 MFI, B cells, 100 nM (unstimulated 1193.5) [MFI]
B1 | 1130 | 1130 | 1140 | 1150 | 1260 | 1340 | 1360
B2 | 1120 | 1130 | 1130 | 1120 | 1220 | 1540 | 1470
B3 | 1110 | 1100 | 1090 | 1110 | 1290 | 1840 | 1850
